# From patent publication US20230295310A1 (ABCELLERA BIOLOGICS, published 2023)
# Experiments:
# [1] = biological target: T1, human CD3 expressed on cells (Jurkat cells; human primary T cells) (human, UniProt P07766 23-207; P04234 22-171; P09693 23-182); test: flow cytometry, 25 nM, Jurkat cells
# T1 construct: whole, on cells
# Protocol: (§1) Purified antibodies were confirmed to bind CD3 expressed on cells using the CytoFLEX S or LX flow cytometers (Beckman Coulter). Antibodies were diluted to 25 nM in FACS buffer (PBS+2% FBS) and were incubated with CD3-expressing cells for 30 minutes at 4° C. […] The median fluorescence intensity of the binding signal for each antibody was normalized to the isotype control to obtain a fold over isotype value. An antibody with a fold over isotype (FOI) of ≥10 was considered to be positive for binding.
# [2] = biological target: T1, human CD3 expressed on cells (Jurkat …); test: flow cytometry, 25 nM, human primary T cells
# Protocol: as §1
# [3] = biological target: T2, cynomolgus monkey CD3 expressed on cyno primary T cells (cynomolgus monkey, UniProt Q95LI5 22-198; Q95LI8 22-171; Q95LI7 23-181); test: flow cytometry, cyno primary T cells
# T2 construct: whole, on cells; CD3 complex on purified cynomolgus monkey CD3 pan T cells; also called cyno CD3
# How it was run: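 Flow cytometric binding was measured after cells were incubated with antibody (25 nM, PBS+2% FBS) at 4° C for 30 minutes. Signals were normalized to isotype to yield FOI, with ≥10 scored positive.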
# T1 sequence (P07766 23-207, chain 1 of 3): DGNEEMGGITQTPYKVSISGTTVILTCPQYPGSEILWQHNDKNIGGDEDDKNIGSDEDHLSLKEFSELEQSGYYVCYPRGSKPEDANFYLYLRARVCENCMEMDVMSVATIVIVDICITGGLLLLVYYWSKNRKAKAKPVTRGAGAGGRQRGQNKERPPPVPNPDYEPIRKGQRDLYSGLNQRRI
# T1 sequence (P04234 22-171, chain 2 of 3): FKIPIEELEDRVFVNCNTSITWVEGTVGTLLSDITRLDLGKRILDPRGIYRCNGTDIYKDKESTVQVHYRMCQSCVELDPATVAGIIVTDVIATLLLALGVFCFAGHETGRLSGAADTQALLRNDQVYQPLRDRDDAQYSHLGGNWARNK
# T1 sequence (P09693 23-182, chain 3 of 3): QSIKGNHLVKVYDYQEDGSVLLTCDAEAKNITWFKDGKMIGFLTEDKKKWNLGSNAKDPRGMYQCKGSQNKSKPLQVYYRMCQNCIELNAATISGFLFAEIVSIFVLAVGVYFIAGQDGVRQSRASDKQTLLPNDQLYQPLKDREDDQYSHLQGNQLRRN
# T2 sequence (Q95LI5 22-198, chain 1 of 3): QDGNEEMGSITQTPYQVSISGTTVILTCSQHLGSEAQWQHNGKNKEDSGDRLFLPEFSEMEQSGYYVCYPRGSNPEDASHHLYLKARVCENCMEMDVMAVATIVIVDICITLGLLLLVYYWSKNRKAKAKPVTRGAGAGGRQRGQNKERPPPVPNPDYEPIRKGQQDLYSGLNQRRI
# T2 sequence (Q95LI8 22-171, chain 2 of 3): as the sequence (P04234 22-171, chain 2 of 3) above, with I5V, N15K, I20V, S32T, D33N, I34N, T64A, S74N, V83L, H141R counted along it
# T2 sequence (Q95LI7 23-181, chain 3 of 3): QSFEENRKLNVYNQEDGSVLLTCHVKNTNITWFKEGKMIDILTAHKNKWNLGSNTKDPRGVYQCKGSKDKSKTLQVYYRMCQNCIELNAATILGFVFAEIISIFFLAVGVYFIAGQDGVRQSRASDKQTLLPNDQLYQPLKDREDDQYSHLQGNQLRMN
Binder,Binding (FOI) [1] [FOI],Binding (FOI) [2] [FOI],binding result [3]
"mAb 228 (antibody, V domains shown, VH/VL only) VH: EVQLLESGGGLVQPGGSLRLSCAASGFTFSNYAMNWVRQAPGKGLEWVSTISGSGGGKYYADSVKGRFTISRDNSKNTLYLHMNSLRAEDTAVYYCAKDPVQDRYYFYYYYMDVWGKGTTVTVSS VL: EIVLTQSPDFQSVTPKEKVTITCRASQSIGSSLHWYQQKPDQSPKLLIKYASQSISGVPSRFSGSGSGTDFTLTINSLEAEDAAAYYCHQSSSLPHTFGQGTKLEIK",159,105,no binding (tested: FOI <10 (FOI >=10 = positive); 25 nM)
"mAb 229 (antibody, V domains shown, VH/VL only) VH: QEQLVESGGGVVQPGRSLRLSCAASGFTFSSYGMHWVRQAPGKGLEWVAIIYYNGKKKDYADSVKGRFTISRDNSKNTLYLQMNSLRAEDTAVYYCARGLGYNWFDPWGQGTLVTVSS VL: EIVLTQSPDFQSVTPKEKVTITCRASQSIGSSLHWYQQKPDQSPKLLIKYASQSFSGVPSRFSGSGSGTDFTLTINSLEAEDAATYYCHQSSSLPYTFGQGTKLEIK",180,250,no binding (tested: FOI <10 (FOI >=10 = positive); 25 nM)
"mAb 256 (antibody, V domains shown, VH/VL only) VH: QVQLQQSGPGLVKPSQTLSLTCAISGDSVSSNYASWNWIRQSPSRGLEWLGRTYYRSKWYNDFAVSVKSRVTINADTSKNQFSLHLSSVTPEDTAIYFCAREANGRGYFYYMDVWGKGTTVTVSS VL: EIVLTQSPDFQSVTPKEKVTITCRASQSIGSSLHWYQQKPVQSPKLLIKYASQSISGVPSRFSGSGSGTVFTLTINSLEAEDAAAYFCHQSSGSPHTFGGGTKVEIK",61.5,73,no binding (tested: FOI <10 (FOI >=10 = positive); 25 nM)
"mAb 230 (antibody, V domains shown, VH/VL only) VH: EVQLLESGGGLVQPGGSLRLSCAASGFTFSSYAMSWVRQAPGKGLEWVSSISGSGGSRYYADSVKGRFTISRDNSKNTLYLQMNSLRAEDTAVYYCAKDPVQDRYYFYYYYMDVWGKGTTVTVSS VL: EIVLTQSPDFQSVTPKEKVTITCRASQSIGSSLHWYQQKPDQSPKLLIKYASQSISGVPSRFSGSGSGTDFTLTINSLEAEDAAAYYCHQSSSLPHTFGQGTKLEIK",141,55.3,no binding (tested: FOI <10 (FOI >=10 = positive); 25 nM)
"mAb 237 (antibody, V domains shown, VH/VL only) VH: EVQLLESGGDLVQPGGSLRLTCAASGFTFRSYAMNWVRQAPGKGLEWVSTISSRGDTTNYADSVKGRFTISRDTSKNTLYLQMDNLRADDTAVYYCSKMFSYYYYYMDVWGKGTTVTVSS VL: SYELTQPLSVSVALGQTARITCGGNNIGSKDVHWYQQKPGQAPVLVIYRDSNRPSGIPERFSGSNSGNTATLTISRAQAGDEADYYCQVWDSRTAVFGGGTQLTAL",217,293,no binding (tested: FOI <10 (FOI >=10 = positive); 25 nM)
"mAb 251 (antibody, V domains shown, VH/VL only) VH: EVQILESGGGLVQPGGSLRLSCVASGFTFRSYVMSWVRRAPGRGLEWVSGISASGGNTYYADSVKGRFTISRDNSKNTLFLQMNGLRAEDTAVYYCAKLFSYYYYFMDVWGKGTTVTVSS VL: SYELTQPLSVSVALGQTARITCGGNNIGSKDVHWYQQKPGQAPVLVIYRDSNRPSGIPERFSGSNSGNTATLTISGAQAGDEADYYCQVWDRRTAVFGGGTQLTAL",215,297,no binding (tested: FOI <10 (FOI >=10 = positive); 25 nM)
"mAb 238 (antibody, V domains shown, VH/VL only) VH: EVQLLESGGDLVQPGGSLRLTCAASGFTFRSYAMNWVRQAPGKGLEWVSTISSRGDTTNYADSVKGRFTISRDTSKNTLYLQMDNLRADDTAVYYCSKMFSYYYYYMDVWGKGTTVTVSS VL: SYELTQPLSVSVALGQTARITCGGNNIGSKDVHWYQQKPGQAPVLVIYRDSNRPSGIPERFSGSNSGNTATLTISRAQAGDEADYYCQVWDSSTAVFGGGTQLTAL",185,266,no binding (tested: FOI <10 (FOI >=10 = positive); 25 nM)
"mAb 213 (antibody, V domains shown, VH/VL only) VH: QEQLVESGGGVVQPGGSLRLSCAASGFTFSGYGMHWVRQAPGKGLEWVAIIWYNGRKTYYAESVKGRFTISRDNSKNTLSLQMNSLRVEDTAVYYCTTGKGYNWFDPWGQGTLVTVSS VL: EIVMTQSPATLSVSPGERATLSCRASQSVSSNLAWYQQKPGQAPRLLIYGASTRATGIPARFSGSGSGTEFTLTISSLQSEDFAVYYCQQFNAWPLTFGGGTKMEIK",192,248,no binding (tested: FOI <10 (FOI >=10 = positive); 25 nM)
"mAb 220 (antibody, V domains shown, VH/VL only) VH: QEQLVESGGGVVQPGGSLRLSCVASGFTFSGYGMHWVRQAPGKGLEWVAIIWYNGRKTYYAESVKGRFTISRDNSKNTLSLQMNSLRVEDTAVYYCTTGKGYNWFDPWGQGTLVTVSS VL: EIVMTQSPATLSVSPGERATLSCRASQSVSSNLAWYQQKPGQAPRLLIYGASTRATGIPARFSGSGSGTEFTLTISSLQSEDFAVYYCQQFNAWPLTFGGGTKMEIK",181,243,no binding (tested: FOI <10 (FOI >=10 = positive); 25 nM)
"mAb 219 (antibody, V domains shown, VH/VL only) VH: QEQLVESGGGVVQPGGSLRLSCAASGFMFSGYGMHWVRQAPGKGLEWVAIIWYNGRKTYYTESVKGRFTISRDNSKNTLSLQMNSLRVEDTAVYYCTAGQGYNWFDPWGQGTLVTVSS VL: EIVMTQSPATLSVSPGERATLSCRASQSVSSNLAWYQQKPGQAPRLLIYGASTRATGIPARFSGSGSGTEFTLTISSLQSEDFAVYYCQQFNAWPLTFGGGTKMEIK",175,245,no binding (tested: FOI <10 (FOI >=10 = positive); 25 nM)
"mAb 225 (antibody, V domains shown, VH/VL only) VH: QEQLVESGGGVVQPGGSLRLSCAASGFKFSGYGMHWVRQAPGKGLEWVAIIWYNGRKTYYAESVKGRFTISRDNSKNTLSLQMNRLRVEDTAVYYCTAGQGYNWFDPWGQGTLVTVSS VL: EIVMTQSPATLSVSPGERATLSCRASQSVSSNLAWYQQKPGQAPRLLIYGASTRATGIPARFSGSGSGTEFTLTISSLQSEDFAVYYCQQFNAWPLTFGGGTKMEIK",210,267,no binding (tested: FOI <10 (FOI >=10 = positive); 25 nM)

# Further lines, with some results ahead:
Binding (FOI) [1] [FOI],Binding (FOI) [2] [FOI],Binder,binding result [3]
125,109,"mAb 250 (antibody, V domains shown, VH/VL only) VH: QVQLVESGGGVVQPGRSLRLSCAASGFTFSTYGMHWVRQAPGKGLEWVAVLWSDGRSKYYADSVQGRFTISRDNSKNTLFLQMSSLRAEDTAVYYCAREPYYDFWSGYYTGYMDVWGKGTTVTVSS VL: DIQMTQSPSSLSASVGDRVTITCRASQGIRNDLGWYQQKPGKAPKRLIYAASSLQGGVPSRFSGSGSGTEFTLTISSLQPEDFATYYCLQHNSYPRTFGQGTKVEIK",no binding (tested: FOI <10 (FOI >=10 = positive); 25 nM)
174,203,"mAb 248 (antibody, V domains shown, VH/VL only) VH: QVKLVESGGGVVQPGRSLRLSCVASGFTFSGYGMHWVRQAPGKGLEWVAIIYYDGKNKYYVDSVKGRFTISRDNSKNTLYLQLNSLRAEDTAVYYCVRGPGYNWFDHWGQGTLVTVAS VL: EIVLTQSPDFQSVTPKEKVTITCRASQSIGSSLHWYQQKPDQSPKLLIKYASQSFSGVPSRFSGSGSGTDFTLTINSLEAEDAATYYCHQSSSLPYTFGQGTKLEIK",no binding (tested: FOI <10 (FOI >=10 = positive); 25 nM)
177,216,"mAb 240 (antibody, V domains shown, VH/VL only) VH: QGKLVESGGGVVQPGRSLRLSCVASGFTFSGYGMHWVRQAPNKGLEWVAIIYYDGKNKYYADSVKGRFTISRDNSKNTLYLQLNSLRAEDTAVYYCVRGPGYNWFDPWGQGTLVTVSS VL: EIVLTQSPDFQSVTPKEKVTITCRASQNIGSSLHWYQQKPDQSPKLLIKHASQSFSGVPSRFSGSGSGTDFTLTINSLEAEDAATYYCHQSSSLPYTFGQGTKLEIK",no binding (tested: FOI <10 (FOI >=10 = positive); 25 nM)
162,198,"mAb 255 (antibody, V domains shown, VH/VL only) VH: QVQVQQSGPGLVKPSQTLSLTCAISGDSVSSKYASWNWIRQSPSRGLEWLGRTYYRSKWYNDFAVSVKSRITINADTSKNQFSLHLSSVTPEDTAIYFCAREANGRGYFYYMDVWGKGTTVTVSS VL: EIVLTQSPDFQSVTPKEKVTITCRASQSIGSSLHWYQQKPDQSPKLLIKYASQSISGVPSRFSGSGSGTVFTLTINSLEAEDAAAYFCHQSSGSPHTFGGGTKVEIK",no binding (tested: FOI <10 (FOI >=10 = positive); 25 nM)
184,270,"mAb 252 (antibody, V domains shown, VH/VL only) VH: EVQILESGGGLVQPGGSLRLSCVASGFTFRSYVMSWVRRAPGRGLEWVSGISTSGGNTYYADSVKGRFTISRDNSKNTLFLQMNGLRAEDTAVYYCAKLFSYYYYFMDVWGKGTTVTVSS VL: SYELTQPLSVSVALGQTARITCGGNNIGSKDVHWYQQKPGQAPVLVIYRDSNRPSGIPERFSGSNSGNTATLTISGAQAGDEADYYCQVWDRRTAVFGGGTQLTAL",no binding (tested: FOI <10 (FOI >=10 = positive); 25 nM)
